Measured values published in US20180155451A1 (published 2018).

B1: GpH7-A5/GpH7-B3 variant Y300_01G/GpL16-k0 (antibody, human IgG1, kappa)
heavy 1: not shown
heavy 2: not shown
light: DIVMTQSPLSLPVTPGEPASISCQASESLVHSNRNTYLHWYLQKPGQSPQLLIYKVSNRFSGVPDRFSGSGSGTDFTLKISRVEAEDVGVYYCSQNTHVPPTFGQGTKVEIERTVAAPSVFIFPPSDEQLKSGTASVVCLLNNFYPREAKVQWKVDNALQSGNSQESVTEQDSKDSTYSLSSTLTLSKADYEKHKVYACEVTHQGLSSPVTKSFNRGEC
notes: heterodimerized IgG1, one H chain mutated; also called He Ab
B2: GpH7-A5/GpH7-B3 variant Y296_16H/GpL16-k0 (antibody, human IgG1, kappa)
heavy 1: not shown
heavy 2: not shown
light: B1 light
notes: heterodimerized antibody, mutation in one H chain only; also called He Ab
B3: GpH7-A5/GpH7-B3 variant Y296_18N/GpL16-k0 (antibody, human IgG1, kappa)
heavy 1: not shown
heavy 2: not shown
light: B1 light
notes: as for B2
B4: GpH7-A5/GpH7-B3 variant V266_06M/GpL16-k0 (antibody, human IgG1, kappa)
heavy 1: not shown
heavy 2: not shown
light: B1 light
notes: as for B2
B5: GpH7-A5/GpH7-B3 variant Y296_19Q/GpL16-k0 (antibody, human IgG1, kappa)
heavy 1: not shown
heavy 2: not shown
light: B1 light
notes: as for B2
B6: GpH7-A5/GpH7-B3 variant S337_15Y/GpL16-k0 (antibody, human IgG1, kappa)
heavy 1: not shown
heavy 2: not shown
light: B1 light
notes: as for B2
B7: GpH7-A5/GpH7-B3 variant S337_07I/GpL16-k0 (antibody, human IgG1, kappa)
heavy 1: not shown
heavy 2: not shown
light: B1 light
notes: as for B2
B8: GpH7-A5/GpH7-B3 variant T335_20W/GpL16-k0 (antibody, human IgG1, kappa)
heavy 1: not shown
heavy 2: not shown
light: B1 light
notes: as for B2
B9: GpH7-A5/GpH7-B3 variant T335_18N/GpL16-k0 (antibody, human IgG1, kappa)
heavy 1: not shown
heavy 2: not shown
light: B1 light
notes: as for B2
B10: GpH7-A5/GpH7-B3 variant S337_09D/GpL16-k0 (antibody, human IgG1, kappa)
heavy 1: not shown
heavy 2: not shown
light: B1 light
notes: as for B2
B11: GpH7-A5/GpH7-B3 variant Y296_04F/GpL16-k0 (antibody, human IgG1, kappa)
heavy 1: not shown
heavy 2: not shown
light: B1 light
notes: as for B2
B12: GpH7-A5/GpH7-B3 variant T335_01G/GpL16-k0 (antibody, human IgG1, kappa)
heavy 1: not shown
heavy 2: not shown
light: B1 light
notes: as for B2
B13: GpH7-A5/GpH7-B3 variant Y296_10E/GpL16-k0 (antibody, human IgG1, kappa)
heavy 1: not shown
heavy 2: not shown
light: B1 light
notes: as for B2
B14: GpH7-A5/GpH7-B3 variant T335_16H/GpL16-k0 (antibody, human IgG1, kappa)
heavy 1: not shown
heavy 2: not shown
light: B1 light
notes: as for B2
B15: GpH7-A5/GpH7-B3 variant T335_13S/GpL16-k0 (antibody, human IgG1, kappa)
heavy 1: not shown
heavy 2: not shown
light: B1 light
notes: as for B2
B16: GpH7-A5/GpH7-B3 variant S337_04F/GpL16-k0 (antibody, human IgG1, kappa)
heavy 1: not shown
heavy 2: not shown
light: B1 light
notes: as for B2
B17: GpH7-A5/GpH7-B3 variant A327_12R/GpL16-k0 (antibody, human IgG1, kappa)
heavy 1: not shown
heavy 2: not shown
light: B1 light
notes: as for B1
B18: GpH7-A5/GpH7-B3 variant S337_11K/GpL16-k0 (antibody, human IgG1, kappa)
heavy 1: not shown
heavy 2: not shown
light: B1 light
notes: as for B2
B19: GpH7-A5/GpH7-B3 variant T335_05P/GpL16-k0 (antibody, human IgG1, kappa)
heavy 1: not shown
heavy 2: not shown
light: B1 light
notes: as for B2
B20: GpH7-A5/GpH7-B3 variant S337_19Q/GpL16-k0 (antibody, human IgG1, kappa)
heavy 1: not shown
heavy 2: not shown
light: B1 light
notes: as for B2
B21: GpH7-A5/GpH7-B3 variant Y296_06M/GpL16-k0 (antibody, human IgG1, kappa)
heavy 1: not shown
heavy 2: not shown
light: B1 light
notes: as for B2
B22: GpH7-A5/GpH7-B3 variant Y296_14T/GpL16-k0 (antibody, human IgG1, kappa)
heavy 1: not shown
heavy 2: not shown
light: B1 light
notes: as for B2
B23: GpH7-A5/GpH7-B3 variant Y296_20W/GpL16-k0 (antibody, human IgG1, kappa)
heavy 1: not shown
heavy 2: not shown
light: B1 light
notes: as for B2
B24: GpH7-A5/GpH7-B3 variant A327_05P/GpL16-k0 (antibody, human IgG1, kappa)
heavy 1: not shown
heavy 2: not shown
light: B1 light
notes: as for B1
B25: GpH7-A5/GpH7-B3 variant T335_10E/GpL16-k0 (antibody, human IgG1, kappa)
heavy 1: not shown
heavy 2: not shown
light: B1 light
notes: as for B2
B26: GpH7-A5/GpH7-B3 variant S337_20W/GpL16-k0 (antibody, human IgG1, kappa)
heavy 1: not shown
heavy 2: not shown
light: B1 light
notes: as for B2
B27: GpH7-A5/GpH7-B3 variant S337_06M/GpL16-k0 (antibody, human IgG1, kappa)
heavy 1: not shown
heavy 2: not shown
light: B1 light
notes: as for B2
B28: GpH7-A5/GpH7-B3 variant S337_16H/GpL16-k0 (antibody, human IgG1, kappa)
heavy 1: not shown
heavy 2: not shown
light: B1 light
notes: as for B2
B29: GpH7-A5/GpH7-B3 variant S337_08L/GpL16-k0 (antibody, human IgG1, kappa)
heavy 1: not shown
heavy 2: not shown
light: B1 light
notes: as for B2
B30: GpH7-A5/GpH7-B3 variant T335_12R/GpL16-k0 (antibody, human IgG1, kappa)
heavy 1: not shown
heavy 2: not shown
light: B1 light
notes: as for B2
B31: GpH7-A5/GpH7-B3 variant Y300_18N/GpL16-k0 (antibody, human IgG1, kappa)
heavy 1: not shown
heavy 2: not shown
light: B1 light
notes: as for B2
B32: GpH7-A5/GpH7-B3 variant S337_10E/GpL16-k0 (antibody, human IgG1, kappa)
heavy 1: not shown
heavy 2: not shown
light: B1 light
notes: as for B2
B33: GpH7-A5/GpH7-B3 variant T335_02A/GpL16-k0 (antibody, human IgG1, kappa)
heavy 1: not shown
heavy 2: not shown
light: B1 light
notes: as for B2
B34: GpH7-A5/GpH7-B3 variant T335_07I/GpL16-k0 (antibody, human IgG1, kappa)
heavy 1: not shown
heavy 2: not shown
light: B1 light
notes: as for B2
B35: GpH7-A5/GpH7-B3 variant T335_19Q/GpL16-k0 (antibody, human IgG1, kappa)
heavy 1: not shown
heavy 2: not shown
light: B1 light
notes: as for B2
B36: GpH7-A5/GpH7-B3 variant Y296_09D/GpL16-k0 (antibody, human IgG1, kappa)
heavy 1: not shown
heavy 2: not shown
light: B1 light
notes: as for B2
B37: GpH7-A5/GpH7-B3 variant S337_18N/GpL16-k0 (antibody, human IgG1, kappa)
heavy 1: not shown
heavy 2: not shown
light: B1 light
notes: as for B2
B38: GpH7-A5/GpH7-B3 variant S337_12R/GpL16-k0 (antibody, human IgG1, kappa)
heavy 1: not shown
heavy 2: not shown
light: B1 light
notes: as for B2
B39: GpH7-A5/GpH7-B3 variant Y296_13S/GpL16-k0 (antibody, human IgG1, kappa)
heavy 1: not shown
heavy 2: not shown
light: B1 light
notes: as for B2
B40: GpH7-A5/GpH7-B3 variant T335_15Y/GpL16-k0 (antibody, human IgG1, kappa)
heavy 1: not shown
heavy 2: not shown
light: B1 light
notes: as for B2
B41: GpH7-A5/GpH7-B3 variant Y296_07I/GpL16-k0 (antibody, human IgG1, kappa)
heavy 1: not shown
heavy 2: not shown
light: B1 light
notes: as for B2
B42: GpH7-A5/GpH7-B3 variant A327_04F/GpL16-k0 (antibody, human IgG1, kappa)
heavy 1: not shown
heavy 2: not shown
light: B1 light
notes: as for B1

Columns and labels:
FcγRIa [1] = molecular target: T1, FcγRIa (human, UniProt P12314 16-292); assay: SPR (Biacore), relative to GpH7-A5/GpH7-B3/GpL16-k0 = 100
T1 construct: extracellular domain; also called FcgRI; FcgRIa
Protocol: (§1) The heterodimerized antibodies He Abs in which one of the H chains was introduced with an alteration were assayed for their binding activities to each activating FcγR and inhibitory FcγR according to the method described in Example 4. […] The activating FcγRs in FIGS. 26, 27, 28, and 29 are FcγRIa, FcγRIIa (R), FcγRIIa (H), and FcγRIIIa, respectively.
(§2) Analysis of interaction between objective antibody and the FcγR was carried out using Biacore T100 (GE Healthcare). HBS-EP+ (GE Healthcare) was used as the running buffer, and the measurement temperature was set to 25° C. Chips produced by immobilizing the antigen peptide by the amine coupling method to a Series S Sencor Chip CM5 (GE Healthcare), or alternatively, chips produced by allowing preliminarily biotinylated antigen peptides to interact with and immobilize onto a Series S Sensor Chip SA (certified) (GE Healthcare) were used. Antibodies of interest were captured onto an antigen peptide-immobilized chip, and allowed to interact to each FcγR diluted with running buffer. To regenerate and repeatedly use the chip, the antibodies captured on the chip were washed off by reacting 10 mM glycine-HCl, pH 1.5.

FcγRIIb = molecular target: T2, FcγRIIb (human, UniProt P31994 43-217); assay: as above
T2 construct: extracellular domain; also called FcgRIIb; 2b
T2 sequence (looked up): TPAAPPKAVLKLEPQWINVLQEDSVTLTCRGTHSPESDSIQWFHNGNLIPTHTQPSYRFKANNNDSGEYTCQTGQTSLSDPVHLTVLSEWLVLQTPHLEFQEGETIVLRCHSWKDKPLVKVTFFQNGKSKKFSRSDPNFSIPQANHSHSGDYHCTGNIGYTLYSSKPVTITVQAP
Protocol: as §1, §2

FcγRIa [2] = molecular target: T1, FcγRIa; assay: SPR (Biacore); He/Con_1a (FcgRIa) divided by He/Con_2b (FcgRIIb)
Protocol: as §1, §2

[3] = molecular target: T3, FcγRIIa R (human FcγRIIa, allotype R, Arg at position 131), extracellular domain with C-terminal His tag (human, UniProt P12318 34-217); assay: SPR (Biacore), relative binding vs GpH7-A5/GpH7-B3/GpL16-k0
T3 construct: extracellular domain; expressed in FreeStyle293 cells; analyte in Biacore; also called 2aR; FcgRIIa R
T3 sequence (looked up): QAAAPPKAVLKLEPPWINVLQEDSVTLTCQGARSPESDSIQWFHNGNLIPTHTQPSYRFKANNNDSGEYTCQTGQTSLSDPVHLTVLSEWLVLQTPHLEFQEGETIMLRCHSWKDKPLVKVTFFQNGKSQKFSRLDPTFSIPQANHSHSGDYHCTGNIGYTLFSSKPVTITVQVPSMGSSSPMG
Protocol: as §2
The FcγR-binding activity of each antibody was assessed primarily using as an indicator the FcγR-binding activity and dissociation constant for FcγR.

T1 sequence (P12314 16-292): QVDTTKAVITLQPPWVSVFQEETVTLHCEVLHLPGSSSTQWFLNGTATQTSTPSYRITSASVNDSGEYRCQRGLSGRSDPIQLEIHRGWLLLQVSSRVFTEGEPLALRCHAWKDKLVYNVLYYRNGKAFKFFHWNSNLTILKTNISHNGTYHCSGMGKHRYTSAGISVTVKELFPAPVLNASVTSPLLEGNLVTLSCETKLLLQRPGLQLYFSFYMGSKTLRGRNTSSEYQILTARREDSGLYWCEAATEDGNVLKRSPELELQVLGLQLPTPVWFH

Row | Binder | He/Con_2aR [3] | other results
1 | B1 | – | He/Con_1a (Ia binding) (FcγRIa [1]): 116 relative (control = 100); He/Con_2b (IIb binding) (FcγRIIb): 48.4 relative (control = 100); Ia/IIb He_1a/2b (FcγRIa [2]): 2.4
2 | B2 | 105 relative, control = 100 | –
3 | B3 | 104 relative, control = 100 | –
4 | B4 | 150 relative, control = 100 | –
5 | B5 | 102 relative, control = 100 | –
6 | B6 | 105 relative, control = 100 | –
7 | B7 | 109 relative, control = 100 | –
8 | B8 | 109 relative, control = 100 | –
9 | B9 | 106 relative, control = 100 | –
10 | B10 | 115 relative, control = 100 | –
11 | B11 | 109 relative, control = 100 | –
12 | B12 | 104 relative, control = 100 | –
13 | B13 | 103 relative, control = 100 | –
14 | B14 | 108 relative, control = 100 | –
15 | B15 | 110 relative, control = 100 | –
16 | B16 | 105 relative, control = 100 | –
17 | B17 | – | He/Con_1a (Ia binding) (FcγRIa [1]): 86.7 relative (control = 100); Ia/IIb He_1a/2b (FcγRIa [2]): 9.64
18 | B18 | 103 relative, control = 100 | –
19 | B19 | 104 relative, control = 100 | –
20 | B20 | 106 relative, control = 100 | –
21 | B21 | 101 relative, control = 100 | –

Row | Binder | He/Con_2aR [3] | other results
22 | B22 | 103 relative, control = 100 | –
23 | B23 | 110 relative, control = 100 | –
24 | B24 | – | He/Con_1a (Ia binding) (FcγRIa [1]): 99.3 relative (control = 100); He/Con_2b (IIb binding) (FcγRIIb): 69.3 relative (control = 100); Ia/IIb He_1a/2b (FcγRIa [2]): 1.43
25 | B25 | 111 relative, control = 100 | –
26 | B26 | 110 relative, control = 100 | –
27 | B27 | 105 relative, control = 100 | –
28 | B28 | 109 relative, control = 100 | –
29 | B29 | 107 relative, control = 100 | –
30 | B30 | 100 relative, control = 100 | –
31 | B31 | 100 relative, control = 100 | –
32 | B32 | 112 relative, control = 100 | –
33 | B33 | 102 relative, control = 100 | –
34 | B34 | 109 relative, control = 100 | –
35 | B35 | 106 relative, control = 100 | –
36 | B36 | 106 relative, control = 100 | –
37 | B37 | 107 relative, control = 100 | –
38 | B38 | 107 relative, control = 100 | –
39 | B39 | 102 relative, control = 100 | –
40 | B40 | 111 relative, control = 100 | –
41 | B41 | 101 relative, control = 100 | –
42 | B42 | – | He/Con_1a (Ia binding) (FcγRIa [1]): 99.1 relative (control = 100); He/Con_2b (IIb binding) (FcγRIIb): 63.7 relative (control = 100); Ia/IIb He_1a/2b (FcγRIa [2]): 1.56
